Source: patent publication US20230062800A1 (DENALI THERAPEUTICS, published 2023)

Molecular target: T1, human apical domain TfR (human, UniProt P02786 198-378)
T1 construct: The SPR analyte is printed only as "human apical domain TfR"; also called human TfR; human transferrin receptor 1 apical domain
Test: Biacore SPR as in Example 2; steady-state fit
Description: To determine whether SGSH-Fc fusion proteins with engineered TfR binding affects the ability of the modified Fc domain to interact with human TfR, the affinity of ETV: SGSH Bizyme Structure 1 (Example 1) for human TfR was assessed using a Biacore™ surface plasmon resonance assay. Biacore™ Series S CM5 sensor chips were immobilized with anti-human Fab (human Fab capture kit from GE Healthcare). 5 μg/mL of the SGSH-Fc fusion proteins were captured for 1 minute on each flow cell and serial 3-fold dilutions of human apical domain TfR were injected at a flow rate of 30 μL/min. Each sample was analyzed with a 3-minute association and a 3-minute dissociation. After each injection, the chip was regenerated using 10 mM glycine-HCl (pH 2.1). Binding response was corrected by subtracting the RU from a flow cell capturing an irrelevant IgG at similar density. Steady-state affinities were obtained by fitting the response at equilibrium against the concentration using Biacore™ T200 Evaluation Software v3.1. Biacore™ analysis established that SGSH-Fc fusion proteins with a TfR-binding site engineered into the Fc region bind to human TfR.

T1 sequence (P02786 198-378 limits assumed): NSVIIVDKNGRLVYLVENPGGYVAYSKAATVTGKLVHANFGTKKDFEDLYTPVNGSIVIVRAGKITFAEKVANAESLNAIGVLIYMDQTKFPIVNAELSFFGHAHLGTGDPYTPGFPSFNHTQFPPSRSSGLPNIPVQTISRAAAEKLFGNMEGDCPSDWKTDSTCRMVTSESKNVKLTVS

- Kd: 340 nM
B1: ETV:SGSH Bizyme Structure 4 (Fc fusion)
chain 1: RPRNALLLLADDGGFESGAYNNSAIATPHLDALARRSLLFRNAFTSVSSCSPSRASLLTGLPQHQNGMYGLHQDVHHFNSFDKVRSLPLLLSQAGVRTGIIGKKHVGPETVYPFDFAYTEENGSVLQVGRNITRIKLLVRKFLQTQDDRPFFLYVAFHDPHRCGHSQPQYGTFCEKFGNGESGMGRIPDWTPQAYDPLDVLVPYFVPNTPAARADLAAQYTTVGRMDQGVGLVLQELRDAGVLNDTLVIFTSDNGIPFPSGRTNLYWPGTAEPLLVSSPEHPKRWGQVSEAYVSLLDLTPTILDWFSIPYPSYAIFGSKTIHLTGRSLLPALEAEPLWATVFGSQSHHEVTMSYPMRSVQHRHFRLVHNLNFKMPFPIDQDFYVSPTFQDLLNRTTAGQPTGWYKDLRHYYYRARWELYDRSRDPHETQNLATDPRFAQLLEMLRDQLAKWQWETHDPWVCAPDGVLEEKLSPQCQPLHNELGGGGSDKTHTCPPCPAPEAAGGPSVFLFPPKPKDTLMISRTPEVTCVVVDVSHEDPEVKFNWYVDGVEVHNAKTKPREEQYNSTYRVVSVLTVLHQDWLNGKEYKCKVSNKALSAPIEKTISKAKGQPREPQVYTLPPSRDELTKNQVSLSCAVKGFYPSDIAVEWESNGQPENNYKTTPPVLDSDGSFFLVSKLTVDKSRWQQGNVFSCSVMHEALHNHYTQKSLSLSPGK
chain 2: RPRNALLLLADDGGFESGAYNNSAIATPHLDALARRSLLFRNAFTSVSSCSPSRASLLTGLPQHQNGMYGLHQDVHHFNSFDKVRSLPLLLSQAGVRTGIIGKKHVGPETVYPFDFAYTEENGSVLQVGRNITRIKLLVRKFLQTQDDRPFFLYVAFHDPHRCGHSQPQYGTFCEKFGNGESGMGRIPDWTPQAYDPLDVLVPYFVPNTPAARADLAAQYTTVGRMDQGVGLVLQELRDAGVLNDTLVIFTSDNGIPFPSGRTNLYWPGTAEPLLVSSPEHPKRWGQVSEAYVSLLDLTPTILDWFSIPYPSYAIFGSKTIHLTGRSLLPALEAEPLWATVFGSQSHHEVTMSYPMRSVQHRHFRLVHNLNFKMPFPIDQDFYVSPTFQDLLNRTTAGQPTGWYKDLRHYYYRARWELYDRSRDPHETQNLATDPRFAQLLEMLRDQLAKWQWETHDPWVCAPDGVLEEKLSPQCQPLHNELGGGGSDKTHTCPPCPAPEAAGGPSVFLFPPKPKDTLMISRTPEVTCVVVDVSHEDPEVKFNWYVDGVEVHNAKTKPREEQYNSTYRVVSVLTVLHQDWLNGKEYKCKVSNKALSAPIEKTISKAKGQPREPQVYTLPPSRDELTKNQVSLWCLVKGFYPSDIAVEWESYGTEWANYKTTPPVLDSDGSFFLYSKLTVTKEEWQQGFVFSCSVMHEALHNHYTQKSLSLSPGK
modifications: SGSH cysteine at position 70 (full-length SGSH numbering) largely converted to formylglycine (fGly 99% in Table 2); the fGly form is SEQ ID NO:95; SGSH cysteine at position 70 (full-length SGSH numbering) largely converted to formylglycine (fGly 99% in Table 2); the fGly form is SEQ ID NO:67
notes: Heterodimer; The preparation may be a mixture; also called fourth "N-terminal bizyme" SGSH-Fc fusion protein; P329S variant of Bizyme Structure 1
